Experimental data published in the supplement of paper PMC10724198.
± gives the standard deviation of the averaged measurements.

What was measured:
Saccharomyces cerevisiae [1] = experiment: protein stability index of tFT-peptide fusion (C-terminal peptide) (PSI (0-1 scale)); higher = more stable (slower turnover)
Description: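 MPS profiling in S. cerevisiae of the tFT-X12 degron library: putative degron peptides plus stable controls, 12 aa, fused to the C-terminus of a sfGFP-mCherry timer. Cells are FACS-sorted into 8 mCherry/sfGFP bins and deep-sequenced. PSI runs from 0 (unstable) to 1 (stable). Backgrounds are wild type, das1Δ and doa10Δ at 30 °C, and wild type, das1Δ, cdc34-1 and cdc53-1 at 37 °C; 2-3 technical replicates each.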

Saccharomyces cerevisiae [2] = experiment: as above; conditions: genetic background: wild type; temperature: 30 C
[3] = genetic background: cdc34-1, temperature: 37 C
[4] = genetic background: cdc53-1, temperature: 37 C
[5] = genetic background: das1 deletion, temperature: 30 C
[6] = genetic background: das1 deletion, temperature: 37 C
[7] = genetic background: doa10 deletion, temperature: 30 C
[8] = genetic background: wild type, temperature: 30 C
[9] = genetic background: wild type, temperature: 37 C
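Note: PSI is a weighted mean of sequencing reads over stability bins, variants kept only with over 10 reads, mCherry proximal and sfGFP distal, peptide attached via GGGS linker.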

| Sequence | protein stability index (Saccharomyces cerevisiae [1]; [3]) | protein stability index (Saccharomyces cerevisiae [1]; [4]) | protein stability index (Saccharomyces cerevisiae [1]; [5]) | protein stability index (Saccharomyces cerevisiae [1]; [6]) | protein stability index (Saccharomyces cerevisiae [1]; [7]) | protein stability index (Saccharomyces cerevisiae [1]; [8]) | protein stability index (Saccharomyces cerevisiae [1]; [9]) | protein stability index (Saccharomyces cerevisiae [2]) |
| --- | --- | --- | --- | --- | --- | --- | --- | --- |
| LLHSLILLEWVF | 0.148 ± 0.01 | 0.146 ± 0.02 | 0.19 ± 0.032 | 0.267 ± 0.011 | 0.145 ± 0.013 | 0.182 ± 0.02 | 0.238 ± 0.0042 | 0.272 ± 0.021 |
| LLIFGLLAVPSP | 0.585 ± 0.0093 | 0.587 ± 0.023 | 0.448 ± 0.028 | 0.569 ± 0.0093 | 0.443 ± 0.031 | 0.457 ± 0.013 | 0.542 ± 0.042 | 0.4771 ± 0.0012 |
| LLLAMLLWVSTM | 0.422 ± 0.0061 | 0.361 ± 0.11 | 0.305 ± 0.034 | 0.483 ± 0.02 | 0.2826 ± 0.0026 | 0.306 ± 0.021 | 0.455 ± 0.038 | 0.388 ± 0.0058 |
| LLLFLLLPPFPF | 0.543 ± 0.034 | 0.59 ± 0.006 | 0.449 ± 0.025 | 0.604 ± 0.026 | 0.437 ± 0.028 | 0.445 ± 0.019 | 0.57 ± 0.0068 | 0.504 ± 0.025 |
| LLLLLPLYLLPI | 0.24 ± 0.031 | 0.177 ± 0.037 | 0.31 ± 0.035 | 0.412 ± 0.021 | 0.553 ± 0.035 | 0.322 ± 0.017 | 0.368 ± 0.0062 | 0.372 ± 0.048 |
| LLLSLYFCFIFF | 0.207 ± 0.025 | 0.152 ± 0.004 | 0.245 ± 0.035 | 0.332 ± 0.018 | 0.337 ± 0.0086 | 0.226 ± 0.022 | 0.309 ± 0.033 | 0.329 ± 0.074 |
| LLLSSILLILSS | 0.357 ± 0.033 | 0.409 ± 0.0057 | 0.29 ± 0.018 | 0.465 ± 0.023 | 0.2369 ± 0.00081 | 0.272 ± 0.024 | 0.459 ± 0.063 | 0.34 ± 0.019 |
| LLPLLLFFSLLR | 0.223 ± 0.019 | 0.158 ± 0.02 | 0.34 ± 0.034 | 0.4062 ± 0.0013 | 0.601 ± 0.05 | 0.318 ± 0.034 | 0.373 ± 0.04 | 0.466 ± 0.03 |
| LLPLSLSLLLSV | 0.52 ± 0.015 | 0.541 ± 0.0062 | 0.432 ± 0.023 | 0.5638 ± 0.0033 | 0.414 ± 0.0064 | 0.429 ± 0.021 | 0.53568 ± 0.00041 | 0.453 ± 0.023 |
| LLSAVAHCYFIA | 0.595 ± 0.034 | 0.713 ± 0.0051 | 0.611 ± 0.01 | 0.738 ± 0.01 | 0.178 ± 0.013 | 0.191 ± 0.021 | 0.29 ± 0.02 | 0.297 ± 0.019 |
| LLSLTLALPLAA | 0.392 ± 0.0064 | 0.434 ± 0.014 | 0.337 ± 0.034 | 0.461 ± 0.0074 | 0.296 ± 0.0033 | 0.349 ± 0.022 | 0.4518 ± 0.0011 | 0.455 ± 0.047 |
| LLVFSSPPPAKF | 0.91 ± 0.036 | 0.901 ± 0.018 | 0.799 ± 0.055 | 0.833 ± 0.025 | 0.808 ± 0.023 | 0.769 ± 0.026 | 0.869 ± 0.024 | 0.81 ± 0.023 |
| LLVSCPLVLRFR | 0.426 ± 0.048 | 0.41 ± 0.02 | 0.437 ± 0.01 | 0.576 ± 0.058 | 0.6177 ± 0.0033 | 0.431 ± 0.028 | 0.511 ± 0.012 | 0.53 ± 0.048 |
| LLYSLVALGVCV | 0.329 ± 0.0041 | 0.314 ± 0.011 | 0.28 ± 0.032 | 0.403 ± 0.0012 | 0.24309 ± 0.00016 | 0.277 ± 0.019 | 0.3667 ± 0.0013 | 0.3805 ± 0.0005 |
| LMFCPPLLRVAL | 0.44 ± 0.023 | 0.4421 ± 0.0031 | 0.372 ± 0.03 | 0.526 ± 0.015 | 0.399 ± 0.026 | 0.392 ± 0.018 | 0.473 ± 0.0086 | 0.485 ± 0.013 |
| LMFSRSLFIVKC | 0.435 ± 0.035 | 0.438 ± 0.051 | 0.36 ± 0.038 | 0.514 ± 0.018 | 0.168 ± 0.0054 | 0.178 ± 0.025 | 0.343 ± 0.037 | 0.295 ± 0.043 |
| LMPYIIFLMSFQ | 0.458 ± 0.026 | 0.496 ± 0.017 | 0.351 ± 0.027 | 0.5408 ± 0.0045 | 0.335 ± 0.028 | 0.347 ± 0.0081 | 0.498 ± 0.042 | 0.418 ± 0.014 |

| Sequence | protein stability index (Saccharomyces cerevisiae [1]; [3]) | protein stability index (Saccharomyces cerevisiae [1]; [4]) | protein stability index (Saccharomyces cerevisiae [1]; [5]) | protein stability index (Saccharomyces cerevisiae [1]; [6]) | protein stability index (Saccharomyces cerevisiae [1]; [7]) | protein stability index (Saccharomyces cerevisiae [1]; [8]) | protein stability index (Saccharomyces cerevisiae [1]; [9]) | protein stability index (Saccharomyces cerevisiae [2]) |
| --- | --- | --- | --- | --- | --- | --- | --- | --- |
| LPPSVLPLPPSH | 0.647 ± 0.053 | 0.72 ± 0.013 | 0.658 ± 0.015 | 0.73 ± 0.024 | 0.6756 ± 0.0016 | 0.679 ± 0.033 | 0.752 ± 0.053 | 0.729 ± 0.021 |
| LPPVPLRLTLVL | 0.448 ± 0.0077 | 0.474 ± 0.031 | 0.353 ± 0.026 | 0.503 ± 0.005 | 0.3197 ± 0.0027 | 0.359 ± 0.024 | 0.477 ± 0.0054 | 0.4414 ± 0.00093 |
| LPRDPLHAQIAS | 0.647 ± 0.019 | 0.696 ± 0.0026 | 0.645 ± 0.019 | 0.6959 ± 0.0017 | 0.223 ± 0.0072 | 0.257 ± 0.031 | 0.516 ± 0.036 | 0.384 ± 0.069 |
| LQFSLPCFLLIF | 0.145 ± 0.0042 | 0.134 ± 0.022 | 0.205 ± 0.019 | 0.253 ± 0.0062 | 0.211 ± 0.0099 | 0.159 ± 0.015 | 0.208 ± 0.019 | 0.221 ± 0.033 |
| LQLRKQILLLMT | 0.348 ± 0.022 | 0.36 ± 0.011 | 0.299 ± 0.022 | 0.432 ± 0.005 | 0.169 ± 0.019 | 0.195 ± 0.013 | 0.233 ± 0.034 | 0.299 ± 0.025 |
| LQSVLRGIDCCA | 0.347 ± 0.0089 | 0.375 ± 0.016 | 0.252 ± 0.053 | 0.467 ± 0.0052 | 0.214 ± 0.0044 | 0.266 ± 0.018 | 0.4341 ± 0.0029 | 0.411 ± 0.085 |
| LRCIFVVVSFTP | 0.0799 ± 0.045 | 0.2 ± 0.025 | 0.172 ± 0.035 | 0.305 ± 0.014 | 0.129 ± 0.0095 | 0.153 ± 0.035 | 0.25 ± 0.0035 | 0.291 ± 0.15 |
| LRCLAIFLYRAF | 0.576 ± 0.045 | 0.6238 ± 0.0039 | 0.49 ± 0.02 | 0.644 ± 0.015 | 0.399 ± 0.013 | 0.404 ± 0.02 | 0.563 ± 0.015 | 0.466 ± 0.013 |
| LRRQAFRYRTLL | 0.458 ± 0.037 | 0.552 ± 0.031 | 0.569 ± 0.021 | 0.566 ± 0.006 | 0.1668 ± 0.0014 | 0.19 ± 0.0052 | 0.2454 ± 0.00035 | 0.221 ± 0.0096 |
| LRTLVFIWFMYV | 0.296 ± 0.045 | 0.481 ± 0.058 | 0.273 ± 0.035 | 0.4851 ± 0.0041 | 0.126 ± 0.0092 | 0.143 ± 0.024 | 0.2612 ± 0.00061 | 0.19 ± 0.067 |
| LRTYSFTIGTLC | 0.616 ± 0.052 | 0.637 ± 0.027 | 0.471 ± 0.024 | 0.6402 ± 0.0061 | 0.241 ± 0.027 | 0.279 ± 0.035 | 0.492 ± 0.015 | 0.385 ± 0.012 |
| LSALMVLSFILV | 0.377 ± 0.016 | 0.4332 ± 0.0036 | 0.379 ± 0.024 | 0.4573 ± 0.00059 | 0.343 ± 0.011 | 0.355 ± 0.028 | 0.428 ± 0.0022 | 0.418 ± 0.033 |
| LSFRLSYPLPIY | 0.418 ± 0.017 | 0.47 ± 0.025 | 0.352 ± 0.034 | 0.5403 ± 0.0029 | 0.1 ± 0.013 | 0.108 ± 0.0014 | 0.132 ± 0.0069 | 0.178 ± 0.032 |
| LSIALPFPVLCR | 0.0213 ± 0.0045 | 0.038 ± 0.03 | 0.115 ± 0.019 | 0.091924 ± 4.9e-05 | 0.0844 ± 0.017 | 0.0877 ± 0.025 | 0.0459 ± 0.011 | 0.134 ± 0.012 |
| LSITQLFCLCAV | 0.317 ± 0.0048 | 0.337 ± 0.02 | 0.289 ± 0.031 | 0.4 ± 0.0069 | 0.2322 ± 0.0017 | 0.272 ± 0.016 | 0.356 ± 0.006 | 0.3742 ± 0.0031 |
| LSLSLQVVVFSM | 0.438 ± 0.034 | 0.497 ± 0.022 | 0.317 ± 0.024 | 0.484 ± 0.0062 | 0.3203 ± 0.00038 | 0.322 ± 0.021 | 0.457 ± 0.022 | 0.467 ± 0.022 |
